A protein production outcome set (Wang et al. 2014)

Assay: label from the status in PepcDB records
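Note: failed if final PepcDB status was selected cloned or expressed and not failed if soluble or beyond.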

For “MKMSELEKMLKGEHFDGASAEIEALRSQAGRLKLEINQSLDEAERYALQRELFGHLGHKSCVQPPFHCEFGKTIRIGDHTFINMNVVMLDGAPITIGDHVLIGPSTQFYTASHSLDYRRRQAWETICKPIVIEDDVWIGGNVVINQGVTIGARSVVAANSVVNQDVPPDTLVGGTPARILRSLKDPAESMAE”, the protein production was “not failed”.

With “MDDIDSLILIGVLIALTAFFVASEFAIVRVRRSRIDQLITEGNKRAILARRVITDLDEYLSASQLGITLTSIGLGVLGEPAFERLLHPLFEPLGLPDSVSHAVSFAVAYGLITFLHVVVGELAPKTVAIQKAEQLTLLIAGPLRLFYLLLFPFIWILNGSARLLCGMFGLKPASEHDGSHSEEELRMLLSESLKNGEINPSEYKYVNKIFEFDNRIAKEIMIPRKEMAAVSTEMTMAEMLEVMLKEKYTRWPVTDGDKDSVLGLVNTKHLFSDLLFMTEEERMKMTIHPYVRPVIEVIETIPVHDLLIKMQRERIHMAILSDEYGGTSGLVTTEDILEEIVGEIRDEFDEDEQPLIQKLGDGHYVMDGKVRIDQVNSLLGASIQEDVDTIGGLILKENIDIEAGESIRIGSYTIKVLKMDGRLIKQIDIKEEAGNTTGITAHHKLPLPEPVMLNSATLSEK” the protein production was “failed”.

In the case of “MNLPPNPVIARGRGRGRKPNNVEANRGFAPSLGQKSDPSHSEGNQASGGNGGGGDAQVGPSIEKSSLSAVQMHKSEGDPRGSVRGRRLITDLVYSRPPGMTSKKGVVGTHITVQANYFKVLKRPNWTIYQYRVDFTPDVEATRLRRSFLY”, the protein production was “failed”.

For “MFDNDRLLLRVLLFGLLGASLWVLAPFWSALFWAAVLAFASWPLMRMLTRLLGGRESLAAGLLTLGWIVLVALPLIWLGFGLADNVRSLMELLKNLQVEGLPPPPSWMAGVPLIGDRLIGWWDSIDQQGVAFFYVLKPYVGEVGNWLLARSAKIGGGILELVLSLILIFFFYRDGPRLESIVHRALERLIGNRAEHYRDLVAGTVQRVVNGVIGTAAAQALLAWIGFMIAGVPGAMLLGLLTFACSLLMVPPLVWGPATAWLFFKGDYGHGVFLGLWGFFIISGVDNILKPYLISRGGNLPLVVVLLGVFGGLLAFGFMGLFLGPILLAVAYNLLSDWIASTPRTPPGEGRGPDA”, the protein production was “failed”.

In the case of “MPAGCESNPRLVGHPFMTTILAIAVFGAVGCVARYLLAGGVYALAGRAFPWGTLAVNVIGAFLIGLIMEAALRTTLMSQELRLGLTIGFLGGFTTFSTFSYETFKLLEDGEFFSASLNVLASVALCLVGTWAGIMAARQL”, the protein production was “failed”.

For “MTTSGERRVAGLAMIGSAACWGSATVMSRDLLVSMTSIQLLLVQLMASVCVLLALAAPRFPWTYRSREMTKGALCGVLEPGLAYVVGLAGLAQTTAGRASIISASEPVLIVLVAWVLFNQRPGLRLMAAIAIAVGGLVLVSWSPVVEDRGGAFRGDMMVVLATLFAAGYVVISSRIVGSFPAASLASGQQMVGLAFAMLVYAGAMAHGDDMGGFGAIPGGTLAYAALSGVVQYALAFWLYLIGLRYLSAGAAGLWLTLIPVFGLAGAWLWLGERPGLLTVLGAIVIVSAVVLGNRGGTE”, the protein production was “failed”.

With “MISLPYLQRFALSGQVALVTGSARGLGLRIAQALAGSGAHVLLNGRDAHAVEAAVSDLRQQGLRASALPFDVSDEQATEQAFARIDAEHGRLDILVNNVGARNRKPLAETSPAEIRAMMDTNLVAGILLARLAAQRMVRQRYGRLIAITSVAGELARANDAVYPAAKQGLTGMMRALAVEFGRHGITSNAIAPGAFATETNAAMANDPQAGAAMAARNPTGRWGDPEEIAGAAVFLASPAASYVNGHVLVVDGGLSVQF” the protein production was “failed”.

In the case of “MKIRPFLVALGLTTFAGAAHGANFEDLTQLLSTKKCPLCDLRGAGLVMVNLTRADLTGADLSGANLSGADLTGANLSGANLTSASLNGANLSGANLNGAITDGTDFREAYFDRATFINTNLETAYMQGAKAVPNTAGTPQLFYGWGLLETSKGNYQSALNHYDQALALDPEFAPGYLGRGLTLLKIGNEASAKQNVEYAQLLFEENQDEVGVKTSEQFLEDLANMQEARRQGAGNPQLDAIVRGVASMAFKYLLPLVGL”, the protein production was “failed”.

With “MQSTAFSLYIIDTLHDSLIFATILMSALLPKIILGPLGGVFVDWFDRKKFLVVIDLISGVLLLISALVYGNNLSLPIIYFICISLGIMNSVDEPLVVALIPSLVEKEKLVTANSINMFSTALGNIIGPILGAVVYSSFGIDTILYINASSFIIGAILEFMINIENKKKISQSKTIFNFLEDFKAGLIYIVRNRIILVIVVSIFFQNFFFNGATTVGVPFLAKQILKVSNAEFAILETTLIVGSIFGLLVASNLIKDKPLASLFPKLLFVISVCFLMIGLICIFLLKKQLMAYVFIAIIYICLGMLSMNVNVLFQTEMQKIVDESMFGRVSSLILSLIMSSIPLGQLVYGYLFKVVSPSIPFLVTFIAICCVSTLFSLSLRNSEL” the protein production was “failed”.

With “LSENTTPFGSVSQHDTQVNCQLQLNAANHLIVNEQTRNCFEYFLTQYGEKSLTQIDQDIKNYFTQSLPQPARDQAQDLWQRYLKYREELGNLKEPAIAKTDIAYYRAVFTSRQMLRQRFFSATEIAGLFGSEDIYNQYTLERMAILNNSKLSEIEKAKQLKALFDQLPQDWKANLEQLSKLDDLKQLTTSIKKNGGSAQELHDMRTNLVGHDATARLEQLDVERSNWKSNVTQYLDERQTILNSNMSDTAKQNAISALRSKNFTAPQDQIRVQAFESAKDQ” the protein production was “failed”.

For “PLGLAPTASTTATLAMGDALAVALLIERGFRPEDFALFHPGGSLGKKLLLTVGDLMHSGDAVPLVGSATPIRDALFVITAKGLGITGVCAEDGALVGVVTDGDLRRSLGKGVDILNQPAGEIMTRNPKRINRSELAAKALQVMESHSITSLFVFDDTADNRPVGVIHLHDLLRA”, the protein production was “not failed”.

For “MKEGKHFVLVHGACHGGWSWYKLKPLLEAAGHKVTALDLAASGTDLRKIEELRTLYDYTLPLMELMESLSADEKVILVGHSLGGMNLGLAMEKYPQKIYAAVFLAAFMPDSVHNSSFVLEQYNERTPAENWLDTQFLPYGSPEEPLTSMFFGPKFLAHKLYQLCSPEDLALASSLVRPSSLFMEDLSKAKYFTDERFGSVKRVYIVCTEDKGIPEEFQRWQIDNIGVTEAIEIKGADHMAMLCEPQKLCASLLEIAHKYNLEHHHHHH”, the protein production was “not failed”.

In the case of “MNKKILATAVLGTGALSTLFAHQAEASTTHTVRSGESLWSISHHYGITVSKLKSLNGLSSNLIFPNQVLKVSGSSNYSSRSNYGNSSSTYTVRAGDSLSSIASRYGTTYRHIMNLNGLNSFLIFPGQQLKVSGSVSSNSHSSYNSNSGGSSSTYTVRYGDSLSSIASRYGTTYQHIMRLNGLNNFFIYPGQKLRVSGSASSNTYSTRSAQSTYYSSPVFNHRNLYDWGQCTWHVFNRRAAIGKGISTYWWNANNWDNAAARDGYRIDGNPTVGSIAQSDAGYYGHVAFVERVNSNGSILVSEMNFSASPGILTYRTIPAYQVRNYKFIH”, the protein production was “failed”.

For “MFLLQQLDHTVKKMKSQLANFFTIINLSCGVFAILFTLQGELRVSLLFITIAAVFDRLDGAAARKFDCASDFGKQLDSLTDIISFGVAPALMIYHAILFDFGYAGALFTVFYIACGAIRLARFNITENHNSFIGLPITAAGCILTLLYLAVGYWPDYTFMFAILILSFLMVSTIRVRKM”, the protein production was “failed”.

In the case of “MNVEGMATGGIHMELHCPKCQHVLDQDNGHARCPSCGEFIEMKALCPDCHQPLQVLKACGAVDYFCQHGHGLISKKRVEFVLALEHHHHHH”, the protein production was “failed”.

For “MPVTEKDLAEDAPWKKIQQNTFTRWCNEHLKCVNKRIGNLQTDLSDGLRLIALLEVLSQKRMYRKYHQRPTFRQMQLENVSVALEFLDRESIKLVSIDSKAIVDGNLKLILGLVWTLILHYSISMPVWEDEGDDDAKKQTPKQRLLGWIQNKIPYLPITNFNQNWQDGKALGALVDSCAPGLCPDWESWDPQKPVDNAREAMQQADDWLGVPQVITPEEIIHPDVDEHSVMTYLSQF”, the protein production was “failed”.

In the case of “MGKVQPVYWRQLRDIEMENNFLLDVRTPDEFSLNTLPGAVNIPLDELRDRLDELPKDKMIYTFCAVGLRGYLAYRILVQHGFEKVRNLSGGLKTYHAAAAPIILREESENEVPLEHHHHHH”, the protein production was “not failed”.

With “MFYTTKSSMNQHNIFFGSSHVVVPVTKPFPFSLDGHVEDEDNLESQYLQWLEERVDENNNINDDQSVGERDVGDDDIDRLADKFIARCHEKFLLEKVESYRRFQDMLARSL” the protein production was “failed”.

In the case of “NPNPISIPIDLSQAGSVVEKEVKIEESWSYHLILQFAVHDRKEDGGLDGKRVWKFLGFNSYDPRDGKQVGYVDYRLAKSELGDLIDETYDCDGTVVPIKITIHQINQDNTKKLIADNLYMTKGNGSGAYTRDITTISLDKGKYIFRIENIEAFSEMIGRKVDFTIYINKRDK”, the protein production was “not failed”.

With “MKMANHPRPGDIIQESLDELNVSLREFARAMEIAPSTASRLLTGKAALTPEMAIKLSVVIGSSPQMWLNLQNAWSLAEAEKTVDVSRLRRLVTQSTP” the protein production was “not failed”.

For “MALRLAVPAMTAQLPPGVTHVDCSTLDMPNAYVVVDDNETTLVDAGWPGDEQTVRDGLHTAGVEPGDIDRVLVTHYDADHVGTLARLTPALDAPVYVHERDAPYVAGDRLPPWTARNGIGALHRLYYRRLDLPDLPIRAVVDGDDIGGFHAYHTPGHTPGHVAYVHEDLSVAFLGDLAYGLGDRLKPTGWLTSSDAAAVESSVRSLCRRAPAFEYACPGHGPPLPDGDDRLAEALP”, the protein production was “failed”.

In the case of “MEATGLITEYNPFHNGHLYHLKKAQELTKADVTIVLMSGNWVQRGLPAITDKWKRAQAAIDAGADLVFELPFYYAVQAGEIFAQGAVRLLSDLQVSSIICGSEHADIDFINLAAHEPDISGNSNFDKKNRTFASNYAAALEEKTGFYLENANDILAFSYAKAILNQNLTEKIKLRTISRVSADYHDQFLNDGEIASATAIRKALSEGQNVDSYTP”, the protein production was “failed”.

In the case of “MHVPIRLLEWFKVEQTLVIQKKKRFGFSQGIGITLLIAIVAKYLAELPFLNIMGQLVIAILIGMVWRAAIGVPHDAIAGTNFASKKLLRFGIILLGMRLNLVDIAKAGPKVLVIAAVVITFTIFVVYGLTKVFKVEKKLGILTACGTAICGAAAVVAIAPQVKAKDDETAVGAAIIAILGTIFTLIYTLLYPVLGLSPYGYGVFSGATLHEIAHVIAAAAPGGSAAVDIAVIVKLTRVAMLVPVAILIGLWFGKSEGSKEKRSWRDLPIPWFIFGFLAMSAVHSLGIIPEVVAGYIVVIAYMLIAMAMAGLGLNVEFKTFRKLGSKAFVAGLIGSVCLSVLGYVLVYALGFM”, the protein production was “failed”.

For “MLVRTLSALECTKVLTANRVGRLACAKDGQPYVVPLYYAYSDAHLYAFSMPGKKIEWMRANPRVSVQVDEHGQGRGWKSVVVDGRYEELPDLIGHKLQRDHAWSVLSKHTDWWEPGALKPVTPPTADSAPHVFFRILIEQVSGREASE”, the protein production was “not failed”.

In the case of “RTRALYDLGRELASALTASQIIETAVGRLEPLFRAKVMLFIPNSEDRLRAATETGNDADAGVAQWVFDNQQPAGLGTNTLPSNAALYVPLKAPMRVRGVIALLPEDAVHPFLPEQQRLLETCAAQIALALERVHYVEVAQDAIV”, the protein production was “failed”.

In the case of “MAQKILVEQVVKRKAIVVQPKDTVDRVAKILSRNKAGSAVVMEGDEILGVVTERDILDKVVAKGKNPKEVKVEEIMTKNPVKIEYDYDIEDVIELMTEKGVRRVLVTKFGKPIGFVTAADILAALASHNHEEEEEEREEESEVYGICEVCGQYGALYKVYHEGRELWVCETCKDLIEGR”, the protein production was “not failed”.

With “MEQHQVWAYQTKTHSVTLNSVDIPALAADDILVQNQAIGINPVDWKFIKANPINWSNGHVPGVDGAGVIVKVGAKVDSKMLGRRVAYHTSLKRHGSFAEFTVLNTDRVMTLPDNLSFERAAALPCPLLTAWQAFEKIPLTKQREVLIVGFGAVNNLLTQMLNNAGYVVDLVSASLSQALAAKRGVRHLYREPSQVTQKYFAIFDAVNSQNAAALVPSLKANGHIICIQDRIPAPIDPAFTRTISYHEIALGALHDFGDRQDWQILMQQGEALLTLIAQGKMEIAAPDIFRFEQMIEALDHSEQTKLKTVLTLNE” the protein production was “not failed”.
